The values that follow come from patent US20250388628A1 (Genentech, published 2025).

In assay [1] the target is AAV receptor (AAVR) on HEK293 cells (Homo sapiens (Human)) (UniProt Q8IZA0). In words: cell-based or functional assay.
In assay [2] the target is T1, AAV receptor (AAVR) fragment comprising the domains PKD1 and PKD2 (residues V305-V499) (Homo sapiens (Human), UniProt Q8IZA0 305-499).
T1 sequence: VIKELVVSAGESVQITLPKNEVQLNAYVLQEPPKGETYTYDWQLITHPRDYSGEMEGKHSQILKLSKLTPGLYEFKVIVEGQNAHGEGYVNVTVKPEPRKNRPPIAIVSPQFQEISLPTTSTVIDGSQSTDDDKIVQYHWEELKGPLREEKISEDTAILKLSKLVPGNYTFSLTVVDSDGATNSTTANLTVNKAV
As to the kind of experiment: SPR; against wild-type VLP.

Assay [3] concerns the target T1, AAV receptor (AAVR) fragment comprising …. In words: SPR; captured AAV9 VP3 VLP, AAVR analyte.
Assay [4] shares this target. As to the kind of experiment: SPR, single replicate; affinity against wild-type AAV9 VLP.
The target is the same in assay [5]. In words: SPR, single replicate; captured AAV9 VP3 VLP, AAVR analyte.
For assay [6] the target is unchanged. As to the kind of experiment: SPR, three replicates; affinity against wild-type AAV9 VLP.
Assay [7] has the same target. As to the kind of experiment: SPR, three replicates; captured AAV9 VP3 VLP, AAVR analyte.
Assay [8] shares this target. As to the kind of experiment: SPR; affinity against wild-type AAV2 VLP.

AAV receptor (AAVR) on HEK293 cells (Homo sapiens (Human)), sequence (Q8IZA0 whole entry, the tested form may be a part): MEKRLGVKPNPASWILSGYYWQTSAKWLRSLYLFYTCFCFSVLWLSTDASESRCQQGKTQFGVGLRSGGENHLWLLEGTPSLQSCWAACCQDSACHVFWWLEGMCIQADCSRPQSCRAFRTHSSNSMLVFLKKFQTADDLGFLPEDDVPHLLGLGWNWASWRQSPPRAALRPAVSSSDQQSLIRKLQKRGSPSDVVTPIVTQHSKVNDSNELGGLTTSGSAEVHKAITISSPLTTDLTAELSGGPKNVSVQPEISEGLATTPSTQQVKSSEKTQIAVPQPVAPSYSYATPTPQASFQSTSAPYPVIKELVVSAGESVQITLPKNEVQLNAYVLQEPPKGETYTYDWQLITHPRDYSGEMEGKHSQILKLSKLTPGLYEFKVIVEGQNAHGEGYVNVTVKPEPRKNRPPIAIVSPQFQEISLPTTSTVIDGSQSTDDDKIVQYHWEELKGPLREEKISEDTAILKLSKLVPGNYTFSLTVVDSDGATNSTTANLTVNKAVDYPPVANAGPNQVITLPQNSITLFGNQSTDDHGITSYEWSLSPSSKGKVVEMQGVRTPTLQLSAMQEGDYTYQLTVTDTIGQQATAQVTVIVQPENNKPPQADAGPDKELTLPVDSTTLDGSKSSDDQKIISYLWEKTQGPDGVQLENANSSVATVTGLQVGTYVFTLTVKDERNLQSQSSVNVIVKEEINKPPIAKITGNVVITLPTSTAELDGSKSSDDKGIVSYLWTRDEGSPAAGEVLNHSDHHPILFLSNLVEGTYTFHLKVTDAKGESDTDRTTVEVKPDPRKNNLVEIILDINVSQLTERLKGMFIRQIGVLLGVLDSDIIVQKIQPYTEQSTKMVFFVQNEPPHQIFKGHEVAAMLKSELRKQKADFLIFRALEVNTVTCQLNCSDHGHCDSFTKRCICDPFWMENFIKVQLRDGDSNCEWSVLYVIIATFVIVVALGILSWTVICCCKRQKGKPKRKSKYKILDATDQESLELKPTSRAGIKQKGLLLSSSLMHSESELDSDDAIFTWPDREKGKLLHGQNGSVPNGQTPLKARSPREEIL

In the case of “AAV9 comprising a Q387K amino acid substitution mutation (full AAV with VP1, VP2 and VP3)”, the Expression of a transgene (GFP) in transduced HEK293 cells in assay [1] was 3 fold.

B1: AAV9 VP3 VLP A273N/Q387K/E500R (other)
VP3: MASGGGAPVADNNEGADGVGSSSGNWHCDSQWLGDRVITTSTRTWALPTYNNHLYKQISNSTSGGSSNDNNYFGYSTPWGYFDFNRFHCHFSPRDWQRLINNNWGFRPKRLNFKLFNIQVKEVTDNNGVKTIANNLTSTVQVFTDSDYQLPYVLGSAHEGCLPPFPADVFMIPQYGYLTLNDGSKAVGRSSFYCLEYFPSQMLRTGNNFQFSYEFENVPFHSSYAHSQSLDRLMNPLIDQYLYYLSKTINGSGQNQQTLKFSVAGPSNMAVQGRNYIPGPSYRQQRVSTTVTQNNNSRFAWPGASSWALNGRNSLMNPGPAMASHKEGEDRFFPLSGSLIFGKQGTGRDNVDADKVMITNEEEIKTTNPVATESYGQVATNHQSAQAQAQTGWVQNQGILPGMVWQDRDVYLQGPIWAKIPHTDGNFHPSPLMGGFGMKHPPPQILIKNTPVPADPPTAFNKDKLNSFITQYSTGQVSVEIEWELQKENSKRWNPEIQYTSNYYKSNNVEFAVNTEGVYSEPRPIGTRYLTRNL
notes: VP3-only VLP; also called AN.QK.ER
On to B1, for which the “KD Fold Change” value in assay [2] was 117 fold. In addition, the figures for the Kd in assay [3], in assay [5] and in assay [7] were 20 nM, 80 nM and 20 nM, respectively. Further, the koff in assay [3] was 0.000667 s⁻¹; in assay [5], 0.000962 s⁻¹; in assay [7], 0.000667 s⁻¹. In addition, the results for the kon in assay [3], in assay [5] and in assay [7] were 33300 M⁻¹ s⁻¹, 11800 M⁻¹ s⁻¹ and 33300 M⁻¹ s⁻¹, respectively. For the same molecule, the figures for the “Fold change vs WT” value in assay [4] and in assay [6] were 53 fold and 117 fold, respectively.

B2: AAV2 VP3 VLP T592D/A593E (other)
chain: MATGSGAPMADNNEGADGVGNSSGNWHCDSTWMGDRVITTSTRTWALPTYNNHLYKQISSQSGASNDNHYFGYSTPWGYFDFNRFHCHFSPRDWQRLINNNWGFRPKRLNFKLFNIQVKEVTQNDGTTTIANNLTSTVQVFTDSEYQLPYVLGSAHQGCLPPFPADVFMVPQYGYLTLNNGSQAVGRSSFYCLEYFPSQMLRTGNNFTFSYTFEDVPFHSSYAHSQSLDRLMNPLIDQYLYYLSRTNTPSGTTTQSRLQFSQAGASDIRDQSRNWLPGPCYRQQRVSKTSADNNNSEYSWTGATKYHLNGRDSLVNPGPAMASHKDDEEKFFPQSGVLIFGKQGSEKTNVDIEKVMITDEEEIRTTNPVATEQYGSVSTNLQRGNRQAADEDVNTQGVLPGMVWQDRDVYLQGPIWAKIPHTDGHFHPSPLMGGFGLKHPPPQILIKNTPVPANPSTTFSAAKFASFITQYSTGQVSVEIEWELQKENSKRWNPEIQYTSNYNKSVNVDFTVDTNGVYSEPRPIGTRYLTRNL
notes: VP3-only VLP
As to B2, the “Fold change vs WT” value in assay [8] was approximately 6 fold.
